Laboratory results as given in publication PMC3877065, “Ligand Recognition by the TPR Domain of the Import Factor Toc64 from Arabidopsis thaliana” (PLoS ONE, 2013).
Where no end group is shown, it is not given here.

B1: Hsp70 C-terminal octapeptide, Thr119 to Ala (GPAIEEVD) (peptide)
chain: GPAIEEVD
B2: Hsp70 C-terminal octapeptide, Gly117 to Ala (peptide)
chain: APTIEEVD
B3: Hsp70 C-terminal octapeptide, Ile120 to Ala (GPTAEEVD) (peptide)
chain: GPTAEEVD
B4: Hsp90 C-terminal octapeptide, Met120 to Ala (TSRAEEVD) (peptide)
chain: TSRAEEVD
B5: Hsp90 C-terminal octapeptide, Arg119 to Ala (TSAMEEVD) (peptide)
chain: TSAMEEVD
B6: Hsp90 C-terminal octapeptide, Thr117 to Ala (peptide)
chain: ASRMEEVD
B7: Hsp90 C-terminal octapeptide, Ser118 to Ala (TARMEEVD) (peptide)
chain: TARMEEVD
B8: Hsp90 C-terminal octapeptide, Glu122 to Ala (TSRMEAVD) (peptide)
chain: TSRMEAVD
B9: Hsp70 C-terminal octapeptide, Pro118 to Ala (GATIEEVD) (peptide)
chain: GATIEEVD
B10: Hsp90 C-terminal octapeptide, Asp124 to Ala (peptide)
chain: TSRMEEVA
B11: C-terminal pentapeptide of Hsp70, Hsp70_C5 (IEEVD) (peptide)
peptide: IEEVD
notes: C-terminal pentapeptide of Hsp70; also called C70_C5; Hsp70 pentapeptide; source: synthetic peptide (Biomatik, >85% purity)
B12: C-terminal pentapeptide of Hsp90, Hsp90_C5 (MEEVD) (peptide)
peptide: MEEVD
notes: C-terminal pentapeptide of Hsp90; also called C90_C5; Hsp90 pentapeptide; source: synthetic peptide (Biomatik, >85% purity)
B13: C-terminal octapeptide of Hsp90 (TSRMEEVD) (peptide)
peptide: TSRMEEVD
notes: C-terminal octapeptide of Hsp90; also called Hsp90 octapeptide; C90_C8; source: synthetic peptide (Biomatik, >85% purity)
B14: C-terminal octapeptide of Hsp70 (GPTIEEVD) (peptide)
peptide: GPTIEEVD
notes: C-terminal octapeptide of Hsp70; also called Hsp70 octapeptide; C70_C8; source: synthetic peptide (Biomatik, >85% purity)

Biological target: T1, TPR domain of AtToc64 (AtToc64_TPR-H6) (Arabidopsis thaliana, UniProt Q9LVH5)
T1 construct: The region encompassing the TPR domain of AtToc64 was composed of residues 474–589; made in house; host or cells: E. coli BL21(DE3)
Assay: biochemical
Format: binding
Settings: not given
Experimental: Peptides were dissolved in the superdex buffer at 6–14 mM concentration and 302 µL were titrated against 1.4 ml of protein at 0.1–0.3 mM in a VP-ITC Microcal Instrument (GE Healthcare). Titrations were carried out at 20°C using 30 injections of 10 µL each injected at interval of 200 seconds. Injections were continued beyond saturation levels to allow determination of the heats of ligand dilution. The non-linear least square curve-fitting algorithm (Microcal Origin) was used for data fitting. After subtraction of the heat of dilution, three floating variables: stoichiometry (N), binding constant (Kd) and change in enthalpy of interaction (ΔH) were obtained. For subsequent alanine scan experiments the stoichiometry was fixed at N = 1.

Row | Molecule | Kd [µM]
1 | GPTAEEVD [GPTAEEVD] | 4650
2 | TSRMEAVD [TSRMEAVD] | 1910
3 | CSCC[C@H](N)C(=O)N[C@@H](CCC(=O)O)C(=O)N[C@@H](CCC(=O)O)C(=O)N[C@H](C(=O)N[C@@H](CC(=O)O)C(=O)O)C(C)C [MEEVD] | 800
4 | TSRMEEVD [TSRMEEVD] | 218
5 | CC[C@H](C)[C@H](N)C(=O)N[C@@H](CCC(=O)O)C(=O)N[C@@H](CCC(=O)O)C(=O)N[C@H](C(=O)N[C@@H](CC(=O)O)C(=O)O)C(C)C [IEEVD] | 568
6 | TSRMEEVA [TSRMEEVA] | 1400
7 | GPTIEEVD [GPTIEEVD] | 230

Same assay, conditions: ITC alanine scanning, Table S1, stoichiometry fixed at N = 1, 20°C

Row | Molecule | Kd
8 | GPTIEEAD [Ala-substituted Hsp70 octapeptide] | No binding
9 | GPTIEAVD [Ala-substituted Hsp70 octapeptide] | No binding
10 | GPTIEEVA [Ala-substituted Hsp70 octapeptide] | No binding
11 | TSRMAEVD [Ala-substituted Hsp90 octapeptide] | No binding*

Same assay, conditions: ITC, Figure 4, alanine scanning of octapeptides; stoichiometry fixed at N = 1 for alanine scan; 20°C

Row | Molecule | Kd
12 | TSRMEEAD [Ala-substituted Hsp90 octapeptide] | No binding
13 | TSRMAEVD [Ala-substituted Hsp90 octapeptide] | No binding

Biological target: T2, TPR domain of AtToc64 with a C-terminal hexa-histidine tag (AtToc64_TPR-H6) (Arabidopsis thaliana, UniProt Q9LVH5 474-589)
T2 chain: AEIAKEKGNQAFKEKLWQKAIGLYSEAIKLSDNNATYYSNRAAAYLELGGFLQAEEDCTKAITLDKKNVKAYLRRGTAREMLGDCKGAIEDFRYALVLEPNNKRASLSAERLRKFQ
Assay: ITC
Settings: not given

Row | Molecule | Kd [µM]
14 | B1 | 769
15 | B2 | 740
16 | B3 | 4600
17 | B4 | 1080
18 | B5 | 100
19 | B6 | 854
20 | B7 | 344
21 | B8 | 1900
22 | B9 | 657
23 | B10 | 1400

Biological target: TPR domain of AtToc64 with a C-terminal hexa-histidine tag (AtToc64_TPR-H6) (Arabidopsis thaliana) (UniProt Q9LVH5)
Assay: ITC; peptide (6-14 mM) titrated into AtToc64_TPR-H6 (0.1-0.3 mM) in the cell, VP-ITC, 20°C, 25 mM Hepes, 100 mM KCl, pH 7.3; 1:1 model, stoichiometry fixed at N = 1 for the alanine scan
Settings: not given

Row | Molecule | stoichiometry N | Kd [µM]
24 | Hsp90 C-terminal octapeptide, alanine mutant TSRMEEVA | 1 | –
25 | Hsp70 C-terminal octapeptide, alanine mutant GATIEEVD | 1 | 657
26 | Hsp90 C-terminal octapeptide, alanine mutant ASRMEEVD | 1 | 854
27 | Hsp70 C-terminal octapeptide, alanine mutant APTIEEVD | 1 | 740
28 | Hsp90 C-terminal octapeptide, alanine mutant TSAMEEVD | 1 | 100
29 | Hsp70 C-terminal octapeptide, alanine mutant GPAIEEVD | 1 | 769
30 | Hsp90 C-terminal octapeptide, alanine mutant TSRMEAVD | 1 | –
31 | Hsp90 C-terminal octapeptide, alanine mutant TSRAEEVD | 1 | 1080
32 | Hsp70 C-terminal octapeptide, alanine mutant GPTAEEVD | 1 | –
33 | Hsp90 C-terminal octapeptide, alanine mutant TARMEEVD | 1 | 344

Biological target: T3, TPR domain of AtToc64 with a C-terminal hexa-histidine tag (AtToc64_TPR-H6) (Arabidopsis thaliana, UniProt Q9LVH5 474-589)
T3 construct: Toc64 (AtToc64) from Arabidopsis thaliana, TPR domain, residues 474-589 of the full-length protein (NP_188424, At3g17970); Cloned with NcoI/XhoI into pETM10; also called TPR domain of Toc64 from Arabidopsis thaliana; source: E. coli BL21(DE3), purified (Ni-NTA, size exclusion chromatography); not shown: His6, C-terminal, kept
T3 sequence (looked up): T2 chain
Assay: ITC; peptide (6-14 mM) titrated into 1.4 ml of protein (0.1-0.3 mM) in the cell; 20°C; 25 mM Hepes, 100 mM KCl, pH 7.3; 30 injections of 10 µL; 1:1 binding model with N, Kd and ΔH floating
Settings: both partners purified

Row | Molecule | stoichiometry N
34 | B11 | 1.2

Biological target: T3, TPR domain of AtToc64 with a C-terminal …
Assay: as above
Settings: both partners purified
Remark: another data set of the same source

Row | Molecule | dH [kcal/mol] | stoichiometry N
35 | B11 | -1.63 | 0.93
36 | B12 | -2.68 | 1.04
37 | B13 | -6.18 | 0.94
38 | B14 | -1 | 1.2
